The source of these data is patent US12679878B2, “CRF2 receptor agonists and their use in therapy” (SANOFI, priority 2020, dated 2026).

Starred links: 1 amine or outer side, 2 acyl side, 3 side chain; linkers in the order of their positions; H or OH if unused. Non-standard residues stand in square brackets, D forms with d. Groups on a side chain read outwards from the residue. No end group written: not given here. *: point of attachment. C18 diacid = O=C(O)CCCCCCCCCCCCCCCCC(=O)*; γGlu = O=C(O)[C@H](CCC(=O)[*:2])N[*:1]; AEEA = NCCOCCOCC(=O)O; Aib = CC(C)(N)C(=O)O

For this assay, the target named is human corticotropin-releasing factor 2α (CRF2 α receptor) (human), Q13324. As to the kind of experiment: cell-based or functional assay.
Chain of human corticotropin-releasing factor 2α (CRF2 α receptor) (human), Q13324 (Q13324 20-411): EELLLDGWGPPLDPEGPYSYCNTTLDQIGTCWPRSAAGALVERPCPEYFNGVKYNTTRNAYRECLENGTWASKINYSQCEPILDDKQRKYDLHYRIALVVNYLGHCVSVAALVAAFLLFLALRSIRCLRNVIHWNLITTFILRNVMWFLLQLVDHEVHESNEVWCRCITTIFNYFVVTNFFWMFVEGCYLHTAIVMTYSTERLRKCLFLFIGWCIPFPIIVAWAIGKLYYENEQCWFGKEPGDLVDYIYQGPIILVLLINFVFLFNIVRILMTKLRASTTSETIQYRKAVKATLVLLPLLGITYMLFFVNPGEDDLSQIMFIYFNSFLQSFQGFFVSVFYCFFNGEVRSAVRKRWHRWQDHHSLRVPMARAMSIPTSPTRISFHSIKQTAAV

B1: SEQ ID NO: 72 (peptide)
peptide: IVLSLDVPIKLK([AEEA-AEEA-γGlu-C18 diacid])QILLEQERQKKQRQQAETN[Aib]QILAQV-NH2
modifications: N-terminus assumed
SMILES: CC[C@H](C)[C@H](N)C(=O)N[C@H](C(=O)N[C@@H](CC(C)C)C(=O)N[C@@H](CO)C(=O)N[C@@H](CC(C)C)C(=O)N[C@@H](CC(=O)O)C(=O)N[C@H](C(=O)N1CCC[C@H]1C(=O)N[C@H](C(=O)N[C@@H](CCCCN)C(=O)N[C@@H](CC(C)C)C(=O)N[C@@H](CCCCNC(=O)COCCOCCNC(=O)COCCOCCNC(=O)CC[C@H](NC(=O)CCCCCCCCCCCCCCCCC(=O)O)C(=O)O)C(=O)N[C@@H](CCC(N)=O)C(=O)N[C@H](C(=O)N[C@@H](CC(C)C)C(=O)N[C@@H](CC(C)C)C(=O)N[C@@H](CCC(=O)O)C(=O)N[C@@H](CCC(N)=O)C(=O)N[C@@H](CCC(=O)O)C(=O)N[C@@H](CCCNC(=N)N)C(=O)N[C@@H](CCC(N)=O)C(=O)N[C@@H](CCCCN)C(=O)N[C@@H](CCCCN)C(=O)N[C@@H](CCC(N)=O)C(=O)N[C@@H](CCCNC(=N)N)C(=O)N[C@@H](CCC(N)=O)C(=O)N[C@@H](CCC(N)=O)C(=O)N[C@@H](C)C(=O)N[C@@H](CCC(=O)O)C(=O)N[C@H](C(=O)N[C@@H](CC(N)=O)C(=O)NC(C)(C)C(=O)N[C@@H](CCC(N)=O)C(=O)N[C@H](C(=O)N[C@@H](CC(C)C)C(=O)N[C@@H](C)C(=O)N[C@@H](CCC(N)=O)C(=O)N[C@H](C(N)=O)C(C)C)[C@@H](C)CC)[C@@H](C)O)[C@@H](C)CC)[C@@H](C)CC)C(C)C)C(C)C
B1 yielded an EC50 [nM], 0% HSA of 0.65 nM.

B2: SEQ ID NO: 69 (peptide)
peptide: IVLSLDVPIKLK([AEEA-AEEA-γGlu-C18 diacid])K[Aib]LLEQERQKKQREQAETNKQILAQV-NH2
modifications: N-terminus assumed
SMILES: CC[C@H](C)[C@H](N)C(=O)N[C@H](C(=O)N[C@@H](CC(C)C)C(=O)N[C@@H](CO)C(=O)N[C@@H](CC(C)C)C(=O)N[C@@H](CC(=O)O)C(=O)N[C@H](C(=O)N1CCC[C@H]1C(=O)N[C@H](C(=O)N[C@@H](CCCCN)C(=O)N[C@@H](CC(C)C)C(=O)N[C@@H](CCCCNC(=O)COCCOCCNC(=O)COCCOCCNC(=O)CC[C@H](NC(=O)CCCCCCCCCCCCCCCCC(=O)O)C(=O)O)C(=O)N[C@@H](CCCCN)C(=O)NC(C)(C)C(=O)N[C@@H](CC(C)C)C(=O)N[C@@H](CC(C)C)C(=O)N[C@@H](CCC(=O)O)C(=O)N[C@@H](CCC(N)=O)C(=O)N[C@@H](CCC(=O)O)C(=O)N[C@@H](CCCNC(=N)N)C(=O)N[C@@H](CCC(N)=O)C(=O)N[C@@H](CCCCN)C(=O)N[C@@H](CCCCN)C(=O)N[C@@H](CCC(N)=O)C(=O)N[C@@H](CCCNC(=N)N)C(=O)N[C@@H](CCC(=O)O)C(=O)N[C@@H](CCC(N)=O)C(=O)N[C@@H](C)C(=O)N[C@@H](CCC(=O)O)C(=O)N[C@H](C(=O)N[C@@H](CC(N)=O)C(=O)N[C@@H](CCCCN)C(=O)N[C@@H](CCC(N)=O)C(=O)N[C@H](C(=O)N[C@@H](CC(C)C)C(=O)N[C@@H](C)C(=O)N[C@@H](CCC(N)=O)C(=O)N[C@H](C(N)=O)C(C)C)[C@@H](C)CC)[C@@H](C)O)[C@@H](C)CC)C(C)C)C(C)C
B2 yielded an EC50 [nM], 0% HSA of 0.61 nM.

B3: SEQ ID NO: 70 (peptide)
peptide: IVLSLDVPIKLK([AEEA-AEEA-γGlu-C18 diacid])QILLEQERQKKQREQAETN[Aib]QILAQV-NH2
modifications: N-terminus assumed
SMILES: CC[C@H](C)[C@H](N)C(=O)N[C@H](C(=O)N[C@@H](CC(C)C)C(=O)N[C@@H](CO)C(=O)N[C@@H](CC(C)C)C(=O)N[C@@H](CC(=O)O)C(=O)N[C@H](C(=O)N1CCC[C@H]1C(=O)N[C@H](C(=O)N[C@@H](CCCCN)C(=O)N[C@@H](CC(C)C)C(=O)N[C@@H](CCCCNC(=O)COCCOCCNC(=O)COCCOCCNC(=O)CC[C@H](NC(=O)CCCCCCCCCCCCCCCCC(=O)O)C(=O)O)C(=O)N[C@@H](CCC(N)=O)C(=O)N[C@H](C(=O)N[C@@H](CC(C)C)C(=O)N[C@@H](CC(C)C)C(=O)N[C@@H](CCC(=O)O)C(=O)N[C@@H](CCC(N)=O)C(=O)N[C@@H](CCC(=O)O)C(=O)N[C@@H](CCCNC(=N)N)C(=O)N[C@@H](CCC(N)=O)C(=O)N[C@@H](CCCCN)C(=O)N[C@@H](CCCCN)C(=O)N[C@@H](CCC(N)=O)C(=O)N[C@@H](CCCNC(=N)N)C(=O)N[C@@H](CCC(=O)O)C(=O)N[C@@H](CCC(N)=O)C(=O)N[C@@H](C)C(=O)N[C@@H](CCC(=O)O)C(=O)N[C@H](C(=O)N[C@@H](CC(N)=O)C(=O)NC(C)(C)C(=O)N[C@@H](CCC(N)=O)C(=O)N[C@H](C(=O)N[C@@H](CC(C)C)C(=O)N[C@@H](C)C(=O)N[C@@H](CCC(N)=O)C(=O)N[C@H](C(N)=O)C(C)C)[C@@H](C)CC)[C@@H](C)O)[C@@H](C)CC)[C@@H](C)CC)C(C)C)C(C)C
In turn, B3 gave an EC50 [nM], 0% HSA of 0.91 nM.

B4: SEQ ID NO: 71 (peptide)
peptide: IVLSLDVPIKLK([AEEA-AEEA-γGlu-C18 diacid])K[Aib]LLEQERQKKQREQAETN[Aib]QILAQV-NH2
modifications: N-terminus assumed
SMILES: CC[C@H](C)[C@H](N)C(=O)N[C@H](C(=O)N[C@@H](CC(C)C)C(=O)N[C@@H](CO)C(=O)N[C@@H](CC(C)C)C(=O)N[C@@H](CC(=O)O)C(=O)N[C@H](C(=O)N1CCC[C@H]1C(=O)N[C@H](C(=O)N[C@@H](CCCCN)C(=O)N[C@@H](CC(C)C)C(=O)N[C@@H](CCCCNC(=O)COCCOCCNC(=O)COCCOCCNC(=O)CC[C@H](NC(=O)CCCCCCCCCCCCCCCCC(=O)O)C(=O)O)C(=O)N[C@@H](CCCCN)C(=O)NC(C)(C)C(=O)N[C@@H](CC(C)C)C(=O)N[C@@H](CC(C)C)C(=O)N[C@@H](CCC(=O)O)C(=O)N[C@@H](CCC(N)=O)C(=O)N[C@@H](CCC(=O)O)C(=O)N[C@@H](CCCNC(=N)N)C(=O)N[C@@H](CCC(N)=O)C(=O)N[C@@H](CCCCN)C(=O)N[C@@H](CCCCN)C(=O)N[C@@H](CCC(N)=O)C(=O)N[C@@H](CCCNC(=N)N)C(=O)N[C@@H](CCC(=O)O)C(=O)N[C@@H](CCC(N)=O)C(=O)N[C@@H](C)C(=O)N[C@@H](CCC(=O)O)C(=O)N[C@H](C(=O)N[C@@H](CC(N)=O)C(=O)NC(C)(C)C(=O)N[C@@H](CCC(N)=O)C(=O)N[C@H](C(=O)N[C@@H](CC(C)C)C(=O)N[C@@H](C)C(=O)N[C@@H](CCC(N)=O)C(=O)N[C@H](C(N)=O)C(C)C)[C@@H](C)CC)[C@@H](C)O)[C@@H](C)CC)C(C)C)C(C)C
In the case of B4, the EC50 [nM], 0% HSA amounted to 3.15 nM.
